By IC50 is commonly meant the concentration at which inhibition is half-maximal. A high value points to weaker potency in that assay.

Non-standard residues stand in square brackets, D forms with d. dPhe(4-I) = N[C@H](Cc1ccc(I)cc1)C(=O)O; d2Nal = N[C@H](Cc1ccc2ccccc2c1)C(=O)O; Bta = N[C@@H](Cc1csc2ccccc12)C(=O)O; Tic = O=C(O)[C@@H]1Cc2ccccc2CN1 Bounds are passed on as bounds.

Data on 10 molecules can be found in PMC5672800 (Journal of medicinal chemistry, 2017).

B1: Ac-His-Arg-(pI)DPhe-Tic-NH2 (peptide)
chain: HRFX
HELM: PEPTIDE1{[ac].H.R.[O=C([C@@H](Cc1ccc(I)cc1)N[*:1])[*:2]].[Tic].[am]}$$$$V2.0
SMILES: CC(=O)N[C@@H](Cc1c[nH]cn1)C(=O)N[C@@H](CCCNC(=N)N)C(=O)N[C@H](Cc1ccc(I)cc1)C(=O)N1Cc2ccccc2C[C@H]1C(N)=O
B2: Ac-Arg-Arg-(pI)DPhe-Tic-NH2 (peptide)
chain: RRFX
HELM: PEPTIDE1{[ac].R.R.[O=C([C@@H](Cc1ccc(I)cc1)N[*:1])[*:2]].[Tic].[am]}$$$$V2.0
SMILES: CC(=O)N[C@@H](CCCNC(=N)N)C(=O)N[C@@H](CCCNC(=N)N)C(=O)N[C@H](Cc1ccc(I)cc1)C(=O)N1Cc2ccccc2C[C@H]1C(N)=O
B3: compound 25 (peptide)
peptide: RRFF
HELM: PEPTIDE1{[ac].R.R.[O=C([C@@H](Cc1ccc(I)cc1)N[*:1])[*:2]].F.[am]}$$$$V2.0
SMILES: CC(=O)N[C@@H](CCCNC(=N)N)C(=O)N[C@@H](CCCNC(=N)N)C(=O)N[C@H](Cc1ccc(I)cc1)C(=O)N[C@@H](Cc1ccccc1)C(N)=O

T2 sequence (P56450 whole entry): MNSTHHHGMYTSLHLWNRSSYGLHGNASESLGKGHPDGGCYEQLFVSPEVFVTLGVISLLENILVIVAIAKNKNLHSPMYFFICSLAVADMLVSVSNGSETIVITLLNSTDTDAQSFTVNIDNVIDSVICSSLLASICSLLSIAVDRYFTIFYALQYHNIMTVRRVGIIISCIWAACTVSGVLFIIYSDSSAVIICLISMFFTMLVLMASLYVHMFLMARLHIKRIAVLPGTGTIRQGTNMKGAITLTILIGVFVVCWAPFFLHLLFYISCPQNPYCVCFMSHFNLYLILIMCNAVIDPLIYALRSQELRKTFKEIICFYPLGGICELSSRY

One test deals with T1, mouse melanocortin-3 receptor (mouse, UniProt P33033 1-323). The experiment in a line: cell-based or functional assay.
T1 sequence (P33033 whole entry): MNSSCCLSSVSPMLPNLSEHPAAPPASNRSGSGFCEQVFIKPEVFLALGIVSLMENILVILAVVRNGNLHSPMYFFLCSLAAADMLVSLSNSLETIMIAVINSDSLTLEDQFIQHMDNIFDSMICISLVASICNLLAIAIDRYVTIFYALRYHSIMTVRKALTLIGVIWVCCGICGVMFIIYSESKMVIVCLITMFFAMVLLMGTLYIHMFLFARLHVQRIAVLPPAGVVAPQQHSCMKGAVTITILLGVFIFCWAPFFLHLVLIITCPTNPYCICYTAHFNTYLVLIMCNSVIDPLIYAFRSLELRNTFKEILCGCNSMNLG
For the molecule Ac-FR[dPhe(4-I)][Bta]-NH2 [compound 15], the “cAMP AlphaScreen, HEK293 cells stably expressing the receptor: agonist EC50” value (“cAMP AlphaScreen … agonist EC50” for short) came to 930 nM.

As to Ac-HR[dPhe(4-I)][Bta]-NH2 [compound 11], the “cAMP AlphaScreen … agonist EC50” value came to 460 nM.

As to Ac-RR[dPhe(4-I)][Bta]-NH2 [compound 10], the “cAMP AlphaScreen … agonist EC50” value came to 160 nM.

B1: the “cAMP AlphaScreen … agonist EC50” value was 40 nM.

For the molecule Ac-RR[dPhe(4-I)][d2Nal]-NH2 [Ac-Arg-Arg-(pI)DPhe-DNal(2′)-NH2], the “cAMP AlphaScreen … agonist EC50” value stood at 57 nM.

On to Ac-FR[dPhe(4-I)][Tic]-NH2 [compound 22], for which the “cAMP AlphaScreen … agonist EC50” value worked out at 610 nM.

With Ac-[d2Nal]R[dPhe(4-I)][Tic]-NH2 [compound 24], the “cAMP AlphaScreen … agonist EC50” value amounted to 600 nM.

The next test has as its target T2, mouse melanocortin-4 receptor (mouse, UniProt P56450 1-332). The experiment in a line: cell-based or functional assay.
For Ac-FR[dPhe(4-I)][Bta]-NH2 [compound 15], the “cAMP AlphaScreen … agonist EC50” value is above 100000 nM and the “cAMP AlphaScreen, Schild analysis against NDP-MSH (blocks m5+m3): antagonist pA2” value (“cAMP AlphaScreen, Schild analysis” below) is 5.7 -Log(Ki).

For Ac-HR[dPhe(4-I)][Bta]-NH2 [compound 11], the “cAMP AlphaScreen, Schild analysis” value was 6.4 -Log(Ki).

With Ac-RR[dPhe(4-I)][Bta]-NH2 [compound 10], the “cAMP AlphaScreen, Schild analysis” value was 6.6 -Log(Ki).

On to B1, for which the “cAMP AlphaScreen … agonist EC50” value is above 100000 nM and the “cAMP AlphaScreen, Schild analysis” value is 7 -Log(Ki).

As for Ac-RR[dPhe(4-I)][d2Nal]-NH2 [Ac-Arg-Arg-(pI)DPhe-DNal(2′)-NH2], the “cAMP AlphaScreen … agonist EC50” value is above 100000 nM and the “cAMP AlphaScreen, Schild analysis” value is 6.4 -Log(Ki).

With B2, the “cAMP AlphaScreen … agonist EC50” value is above 100000 nM and the “cAMP AlphaScreen, Schild analysis” value is 7.8 -Log(Ki).

For Ac-FR[dPhe(4-I)][Tic]-NH2 [compound 22], the “cAMP AlphaScreen … agonist EC50” value is above 100000 nM and the “cAMP AlphaScreen, Schild analysis” value is 6.3 -Log(Ki).

Turning to Ac-[d2Nal]R[dPhe(4-I)][Tic]-NH2 [compound 24], the “cAMP AlphaScreen, Schild analysis” value is 6.4 -Log(Ki).

For the next test, the target named is T1, mouse melanocortin-3 receptor. Kind of test: radioligand binding.
Ac-RR[dPhe(4-I)][d2Nal]-NH2 [Ac-Arg-Arg-(pI)DPhe-DNal(2′)-NH2] returned an IC50 of 440 nM.

On to Ac-FR[dPhe(4-I)][Tic]-NH2 [compound 22], for which the concentration for half-maximal inhibition (IC50) was found to be 2500 nM.

A further test has as its target T2, mouse melanocortin-4 receptor. The experiment in a line: radioligand binding.
On to Ac-FR[dPhe(4-I)][Bta]-NH2 [compound 15], for which the half-inhibitory concentration (IC50) was found to be 850 nM.

As for Ac-HR[dPhe(4-I)][Bta]-NH2 [compound 11], the IC50 amounted to 275 nM.

Take Ac-RR[dPhe(4-I)][Bta]-NH2 [compound 10]: the IC50 turned out to be 93 nM.

The molecule B1 displayed a 50% inhibitory concentration (IC50) of 83 nM.

Regarding Ac-RR[dPhe(4-I)][d2Nal]-NH2 [Ac-Arg-Arg-(pI)DPhe-DNal(2′)-NH2], the IC50 amounted to 220 nM. This IC50 lies about 2.7-fold higher than the previous one.

Regarding B2, the IC50 came to 13 nM.

In the case of Ac-FR[dPhe(4-I)][Tic]-NH2 [compound 22], the half-maximal inhibitory concentration (IC50) was 135 nM.

The molecule Ac-[d2Nal]R[dPhe(4-I)][Tic]-NH2 [compound 24] yielded an IC50 of 43 nM.

For another test, the target named is mouse melanocortin-5 receptor (mouse, UniProt P41149 1-325). The experiment in a line: cell-based or functional assay.
Sequence of mouse melanocortin-5 receptor (P41149 whole entry): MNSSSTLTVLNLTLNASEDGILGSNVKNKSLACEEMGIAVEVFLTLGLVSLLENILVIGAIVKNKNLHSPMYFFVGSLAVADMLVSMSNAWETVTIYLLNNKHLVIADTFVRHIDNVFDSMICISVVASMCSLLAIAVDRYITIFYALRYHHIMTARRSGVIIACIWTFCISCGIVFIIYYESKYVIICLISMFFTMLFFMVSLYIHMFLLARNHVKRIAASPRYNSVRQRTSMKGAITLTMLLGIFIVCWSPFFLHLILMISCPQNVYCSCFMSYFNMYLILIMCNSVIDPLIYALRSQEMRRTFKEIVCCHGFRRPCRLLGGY
With Ac-FR[dPhe(4-I)][Bta]-NH2 [compound 15], the “cAMP AlphaScreen … agonist EC50” value came to 1300 nM.

On to Ac-HR[dPhe(4-I)][Bta]-NH2 [compound 11], for which the “cAMP AlphaScreen … agonist EC50” value is 270 nM.

In the case of Ac-RR[dPhe(4-I)][Bta]-NH2 [compound 10], the “cAMP AlphaScreen … agonist EC50” value was determined as 210 nM.

As to B1, the “cAMP AlphaScreen … agonist EC50” value stood at 17 nM.

In the case of Ac-RR[dPhe(4-I)][d2Nal]-NH2 [Ac-Arg-Arg-(pI)DPhe-DNal(2′)-NH2], the “cAMP AlphaScreen … agonist EC50” value worked out at 500 nM.

Consider B2, for which the “cAMP AlphaScreen … agonist EC50” value turned out to be 8.8 nM.

For Ac-FR[dPhe(4-I)][Tic]-NH2 [compound 22], the “cAMP AlphaScreen … agonist EC50” value is 200 nM.

Turning to Ac-H[dF]RW-NH2 [Ac-His-DPhe-Arg-Trp-NH2], the “cAMP AlphaScreen … agonist EC50” value worked out at 3 nM.

Consider B3, for which the “cAMP AlphaScreen … agonist EC50” value turned out to be 340 nM.

On to Ac-[d2Nal]R[dPhe(4-I)][Tic]-NH2 [compound 24], for which the “cAMP AlphaScreen … agonist EC50” value turned out to be 250 nM.

The target in another test is mouse melanocortin-1 receptor (mouse, UniProt Q01727 1-315). The experiment in a line: cell-based or functional assay.
Sequence of mouse melanocortin-1 receptor (Q01727 whole entry): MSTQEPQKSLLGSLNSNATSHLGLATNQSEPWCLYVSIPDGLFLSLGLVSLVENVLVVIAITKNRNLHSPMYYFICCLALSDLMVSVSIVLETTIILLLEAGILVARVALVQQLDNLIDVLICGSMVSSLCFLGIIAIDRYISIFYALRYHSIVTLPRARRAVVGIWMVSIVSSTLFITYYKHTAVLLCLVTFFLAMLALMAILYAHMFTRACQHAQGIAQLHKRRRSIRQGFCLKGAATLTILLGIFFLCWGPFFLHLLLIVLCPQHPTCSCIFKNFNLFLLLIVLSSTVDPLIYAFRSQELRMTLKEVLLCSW
Consider Ac-FR[dPhe(4-I)][Bta]-NH2 [compound 15], for which the “cAMP AlphaScreen … agonist EC50” value was 330 nM.

On to Ac-HR[dPhe(4-I)][Bta]-NH2 [compound 11], for which the “cAMP AlphaScreen … agonist EC50” value was found to be 70 nM.

Turning to Ac-RR[dPhe(4-I)][Bta]-NH2 [compound 10], the “cAMP AlphaScreen … agonist EC50” value came out at 56 nM.

In the case of B1, the “cAMP AlphaScreen … agonist EC50” value worked out at 0.71 nM.

On to Ac-RR[dPhe(4-I)][d2Nal]-NH2 [Ac-Arg-Arg-(pI)DPhe-DNal(2′)-NH2], for which the “cAMP AlphaScreen … agonist EC50” value worked out at 280 nM.

Take B2: the “cAMP AlphaScreen … agonist EC50” value was 0.51 nM.

Regarding Ac-FR[dPhe(4-I)][Tic]-NH2 [compound 22], the “cAMP AlphaScreen … agonist EC50” value is 8 nM.

Turning to B3, the “cAMP AlphaScreen … agonist EC50” value came out at 55 nM.

For the molecule Ac-[d2Nal]R[dPhe(4-I)][Tic]-NH2 [compound 24], the “cAMP AlphaScreen … agonist EC50” value stood at 7 nM.
